Experimental data published in patent US20220204611A1 (Amgen, published 2022).
Positions count from the first letter of the chain named. Blank lines part the entries; values can stand above or below the binder they belong to.

Experiments:
human TREM2 [1] = target: T1, human TREM2 (human, UniProt Q9NZC2 19-174, limits assumed); experiment: yeast-displayed Fab FACS, 2nd screen 100 nM
T1 sequence: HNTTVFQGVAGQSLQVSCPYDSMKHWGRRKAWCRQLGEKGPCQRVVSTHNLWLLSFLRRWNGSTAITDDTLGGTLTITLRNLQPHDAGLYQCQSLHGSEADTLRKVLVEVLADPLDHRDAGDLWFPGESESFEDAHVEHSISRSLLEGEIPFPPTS

human TREM2 [2] = target: T1, human TREM2; experiment: yeast-displayed Fab FACS, 1st screen 110 nM

B1: V6 (Fab, V domains shown)
VH: EVQLVQSGAEVKKPGESLKISCKGSGYSFTSMWIAWVRQMPGKGLEWMGIIYPGDSDTRYSPSFQGQVTISADKSISTAYLQWSSLKASDTAMYFCARQRTFYYDSSDYFDYWGQGTLVTVSS
VL: DIQMTQSPSSVSASVGDRVTITCRASQGISSWLAWYQQKPGKAPKLLIYAASSLQNGVPSRFSGSGSGTDFTLTISSLQPEDFATYFCQQADSFPRTFGQGTKLEIK
binding signal fold over 6E7 parental (human TREM2 [1]): 0.56 fold | binding signal fold over 6E7 parental (human TREM2 [2]): 0.2 fold

B2: V11 (Fab, V domains shown)
VH: B1 VH with M32Y
VL: B1 VL with D92A
binding signal fold over 6E7 parental (human TREM2 [1]): 0.42 fold | binding signal fold over 6E7 parental (human TREM2 [2]): 0.79 fold

B4: V10 (Fab, V domains shown)
VH: B1 VH with M32Y
VL: B1 VL with A50S
binding signal fold over 6E7 parental (human TREM2 [1]): 0.7 fold | binding signal fold over 6E7 parental (human TREM2 [2]): 0.76 fold

B7: V19 (Fab, V domains shown)
VH: B1 VH with M32S
VL: B1 VL
binding signal fold over 6E7 parental (human TREM2 [1]): 0.48 fold | binding signal fold over 6E7 parental (human TREM2 [2]): 0.59 fold

B11: V30 (Fab, V domains shown)
VH: B1 VH with Y27S, M32Y
VL: B1 VL
binding signal fold over 6E7 parental (human TREM2 [1]): 0.72 fold | binding signal fold over 6E7 parental (human TREM2 [2]): 0.79 fold

B12: V31 (Fab, V domains shown)
VH: B1 VH with M32Y, D57E
VL: B1 VL
binding signal fold over 6E7 parental (human TREM2 [1]): 0.73 fold | binding signal fold over 6E7 parental (human TREM2 [2]): 0.61 fold

B13: V22 (Fab, V domains shown)
VH: B1 VH with M32Y
VL: B1 VL with A50R
binding signal fold over 6E7 parental (human TREM2 [1]): 0.71 fold | binding signal fold over 6E7 parental (human TREM2 [2]): 0.3 fold

B14: V9 (Fab, V domains shown)
VH: B1 VH with M32Y, T101G
VL: B1 VL
binding signal fold over 6E7 parental (human TREM2 [1]): 0.54 fold | binding signal fold over 6E7 parental (human TREM2 [2]): 0.67 fold

B17: V21 (Fab, V domains shown)
VH: B1 VH with M32Y, Y109F
VL: B1 VL
binding signal fold over 6E7 parental (human TREM2 [1]): 0.68 fold | binding signal fold over 6E7 parental (human TREM2 [2]): 0.76 fold

B20: V7 (Fab, V domains shown)
VH: B1 VH with M32E
VL: B1 VL
binding signal fold over 6E7 parental (human TREM2 [1]): 0.32 fold | binding signal fold over 6E7 parental (human TREM2 [2]): 0.11 fold

B22: V18 (Fab, V domains shown)
VH: B1 VH with M32Y, W33H
VL: B1 VL
binding signal fold over 6E7 parental (human TREM2 [1]): 0.42 fold | binding signal fold over 6E7 parental (human TREM2 [2]): 0.17 fold

B23: V20 (Fab, V domains shown)
VH: B1 VH with M32Y, I50R
VL: B1 VL
binding signal fold over 6E7 parental (human TREM2 [1]): 0.52 fold | binding signal fold over 6E7 parental (human TREM2 [2]): 0.18 fold

B24: V32 (Fab, V domains shown)
VH: B1 VH with M32Y, P62N
VL: B1 VL
binding signal fold over 6E7 parental (human TREM2 [1]): 0.89 fold | binding signal fold over 6E7 parental (human TREM2 [2]): 0.82 fold

B26: V8 (Fab, V domains shown)
VH: B1 VH with M32Y, R59K
VL: B1 VL
binding signal fold over 6E7 parental (human TREM2 [1]): 0.77 fold | binding signal fold over 6E7 parental (human TREM2 [2]): 0.28 fold

B27: V23 (Fab, V domains shown)
VH: B1 VH with M32Y
VL: B1 VL with R96L
binding signal fold over 6E7 parental (human TREM2 [1]): 0.4 fold | binding signal fold over 6E7 parental (human TREM2 [2]): 0.4 fold

Next, values leading:

binding signal fold over 6E7 parental (human TREM2 [1]): 0.41 fold | binding signal fold over 6E7 parental (human TREM2 [2]): 0.45 fold
B3: V42 (Fab, V domains shown)
VH: B1 VH with M32A
VL: B1 VL

binding signal fold over 6E7 parental (human TREM2 [1]): 0.66 fold | binding signal fold over 6E7 parental (human TREM2 [2]): 0.24 fold
B5: V55 (Fab, V domains shown)
VH: B1 VH with M32Y, R59I, F64H
VL: B1 VL

binding signal fold over 6E7 parental (human TREM2 [1]): 1.02 fold | binding signal fold over 6E7 parental (human TREM2 [2]): 0.34 fold
B6: V34 (Fab, V domains shown)
VH: B1 VH with M32Y
VL: B1 VL with N56D

binding signal fold over 6E7 parental (human TREM2 [1]): 0.33 fold | binding signal fold over 6E7 parental (human TREM2 [2]): 0.2 fold
B8: V43 (Fab, V domains shown)
VH: B1 VH with M32Y, D57G
VL: B1 VL

binding signal fold over 6E7 parental (human TREM2 [1]): 0.59 fold | binding signal fold over 6E7 parental (human TREM2 [2]): 0.23 fold
B9: V56 (Fab, V domains shown)
VH: B1 VH with M32Y, S61Q
VL: B1 VL

binding signal fold over 6E7 parental (human TREM2 [1]): 0.47 fold | binding signal fold over 6E7 parental (human TREM2 [2]): 0.42 fold
B10: V47 (Fab, V domains shown)
VH: B1 VH with M32Y
VL: B1 VL with R96M

binding signal fold over 6E7 parental (human TREM2 [1]): 0.34 fold | binding signal fold over 6E7 parental (human TREM2 [2]): 0.23 fold
B15: V33 (Fab, V domains shown)
VH: B1 VH with M32Y, Y104G
VL: B1 VL

binding signal fold over 6E7 parental (human TREM2 [1]): 0.54 fold | binding signal fold over 6E7 parental (human TREM2 [2]): 0.55 fold
B16: V54 (Fab, V domains shown)
VH: B1 VH with M32Q
VL: B1 VL

binding signal fold over 6E7 parental (human TREM2 [1]): 0.96 fold | binding signal fold over 6E7 parental (human TREM2 [2]): 0.83 fold
B18: V46 (Fab, V domains shown)
VH: B1 VH with M32Y
VL: B1 VL with S53T

binding signal fold over 6E7 parental (human TREM2 [1]): 0.29 fold | binding signal fold over 6E7 parental (human TREM2 [2]): 0.21 fold
B19: V35 (Fab, V domains shown)
VH: B1 VH with M32Y
VL: B1 VL with D92Y

binding signal fold over 6E7 parental (human TREM2 [1]): 0.52 fold | binding signal fold over 6E7 parental (human TREM2 [2]): 0.65 fold
B21: V44 (Fab, V domains shown)
VH: B1 VH with M32Y, G54S
VL: B1 VL

binding signal fold over 6E7 parental (human TREM2 [1]): 0.53 fold | binding signal fold over 6E7 parental (human TREM2 [2]): 0.43 fold
B25: V45 (Fab, V domains shown)
VH: B1 VH with M32Y
VL: B1 VL with W32F
